Laboratory results reported in patent US20210285949A1.

Biological target: human recombinant adrenomedullin receptor (CRLR+RAMP3) (human)

An IC50 (read off the curve); cAMP HTRF assay, agonist 5.63 nM hADM of 200 nM was found for “antagonist (human ADM 22-52) (from UniProt P35318) (peptide)” in this work.
